Data on 1 molecule can be found in patent US20240158537A1.

This assay deals with IL-7 receptor (IL-7R), heterodimer of IL-7R alpha (CD127) and common gamma chain (CD132), on primary human T cells (human) (UniProt P16871). Briefly: cell-based or functional assay.
IL-7 receptor (IL-7R), heterodimer of IL-7R alpha (CD127) and common gamma chain (CD132), on primary human T cells (human), sequence (P16871 21-459, chain 1 of 2): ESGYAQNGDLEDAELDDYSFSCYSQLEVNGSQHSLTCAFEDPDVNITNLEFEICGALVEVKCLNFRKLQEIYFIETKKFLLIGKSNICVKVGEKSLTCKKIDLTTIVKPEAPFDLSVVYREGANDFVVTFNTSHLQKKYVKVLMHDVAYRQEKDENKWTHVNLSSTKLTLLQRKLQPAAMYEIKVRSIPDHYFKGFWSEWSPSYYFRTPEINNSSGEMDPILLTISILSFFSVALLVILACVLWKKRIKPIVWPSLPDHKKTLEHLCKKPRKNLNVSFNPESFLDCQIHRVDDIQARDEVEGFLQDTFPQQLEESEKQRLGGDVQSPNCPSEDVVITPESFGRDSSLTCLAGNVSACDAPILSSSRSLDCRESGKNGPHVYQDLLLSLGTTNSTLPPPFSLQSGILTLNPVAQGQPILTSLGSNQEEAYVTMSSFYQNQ
IL-7 receptor (IL-7R), heterodimer of IL-7R alpha (CD127) and common gamma chain (CD132), on primary human T cells (human), sequence (P31785 23-369, chain 2 of 2, further chain): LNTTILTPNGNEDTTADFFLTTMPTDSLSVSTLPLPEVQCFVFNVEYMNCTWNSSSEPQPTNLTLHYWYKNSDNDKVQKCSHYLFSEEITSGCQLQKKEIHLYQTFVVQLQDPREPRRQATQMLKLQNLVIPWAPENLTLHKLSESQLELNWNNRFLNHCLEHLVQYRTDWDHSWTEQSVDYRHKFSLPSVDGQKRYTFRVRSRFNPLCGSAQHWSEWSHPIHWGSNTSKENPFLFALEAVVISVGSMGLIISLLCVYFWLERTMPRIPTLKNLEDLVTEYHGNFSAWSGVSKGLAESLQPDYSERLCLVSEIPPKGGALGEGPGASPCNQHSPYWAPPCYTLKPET

B1: WT IL-7 His (SEQ ID NO: 2), native IL-7 with His-tag (ligand)
chain: DCDIEGKDGKQYESVLMVSIDQLLDSMKEIGSNCLNNEFNFFKRHICDANKEGMFLFRAARKLRQFLKMNSTGDFDLHLLKVSEGTTILLNCTGQVKGRKPAALGEAQPTKSLEENKSLKEQKKLNDLCFLKRLLQEIKTCWNKILMGTKEHVDHHHHHH
B1 gave an Avg EC50 (nM) (human pSTAT5), CD4 Memory of 0.001 nM; an Avg EC50 (nM) (human pSTAT5), CD4 Naive of 0.001 nM; an Avg EC50 (nM) (human pSTAT5), CD4 Treg of 0.033 nM; an Avg EC50 (nM) (human pSTAT5), CD8 Memory of 0.006 nM. For the same molecule, the Avg EC50 (nM) (human pSTAT5), CD8 Naive worked out at 0.002 nM.
